# Experimental data from the nanobody polyreactivity screen of Harvey et al. (2022).
# Experiment: yeast display, Sf9 membrane polyspecificity reagent, FACS + sequencing; frameworks hold sequencing errors
# Method in brief: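 A nanobody's polyreactivity label depends on the gate it was sorted from. Yeast display cells were stained with 10% biotinylated, detergent-solubilized Sf9 membrane reagent for 1 hour at 4 °C, enriched on streptavidin microbeads and sorted by FACS. The low and high (top ~1%) gates were set on anti-HA fluorescence for expression and streptavidin fluorescence for reagent binding.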
row,Sequence,polyreactivity (PSR sort gate)
1,QVQLVESGGGLVQAGGSLRLSCAASGSIFYFYTMGWYRQAPGKERELVAAISGGGGSTYYADSVTGRFTISRDNAKNTVYLQMNSLKPEDTAVYYCAADGAGWLDYGYWGQGTQVTVSS,low polyreactivity
2,QVQLVESGGGLVQAGGSLRLSCAASGRTFDRYAMGWYRQAPGKERELVAAISSGTSTNYADSVKGRFTISRDNAKNTVSLQMNSLKPEDTAVYYCNVDSPLQPYRYYYWGQGTQVTVSS,low polyreactivity
3,QVQLVESGGGLVQAGGSLRLSCAASGRTLGDYGMGWYRQAPGKETQLVAVITSGGSPYYADSVKGRFTISRDNAKNTVYLQMNSLKPEDNAVYFCNARHPYYTVQTGGYDYWGQGTQVTVSS,low polyreactivity
4,QVQLVESGGGLVQAGGSLRLSCAASGITFKAYAMGWYRQAPGKERELVAAITGSGGRTYYADSVKGRFTISRDNAKNTVYLQMNSLKPEDTAVYYCAKTSSWYLRPKYYYWGQGTQVTVSS,high polyreactivity
5,QVQIVESGGGVVQAGGSLRLICAASGSTFLVYAMGWYRQAPGKERELVAAISGRGGRTYYADSVKGRFTISRDIAKNTVYLQMNSLKPEDTAVYYCAKVSKYGAYDYWGQGTQVTVSS,high polyreactivity
6,QVQLVESGGGLVQAGGSLRLSCAASGYTFVIYAMGSYRQAPGKERELVAAITTIGGRTYYADSVKGRFTISRDNAKNNVYLQMNSLKPEDTAVYYCAADIRSNRLYDGGYWGEGTQVTVSS,low polyreactivity
7,QVQLVESGGGLVQAGGSLRLSCAASGSIFIWYAMAWYRQAPWKERELVAAIRSGGSTYYADSVKGRFTISRDNAKNTVYLQMNSLKPEDTAVYYCAKVLTWRGYRYNYWGQGTQVTVSS,low polyreactivity
8,QVQLVESGGGLVQAGGSLRLSCAASGSIFDRYAMGWYRQAPGKERELVAAISTDGTRTYYADSVKGRFTISRDNAKNTVYLQMNSLKPEDTAVYYGAKYWRSNYYYWGQGTQVTVSS,high polyreactivity
9,QVQLVESGGGLVQAGGSLRLICAASGSTFDGNVMGWYRQAPGKERELVADIDSGGSTNYADSVKGRFTISRDNAKNTVYLQMNSLKPEDTAFYYCNAEWDDSFIRWFRYRGNYWGQGTQVTVSS,low polyreactivity
10,QVQLVESGGGLVQAGGSLRLSCAASGSTFRLYTMGWYRQAPGKERELVASIRGSGGRTYYADSVKGRFTISRDNAKNTVYLQMNSLKPEDTAVYYCNAESYSTWSFGHRYEYDYWGQGTQVTVSS,low polyreactivity
11,QVQLVESGGGLVQAGGSLRLSCAASGRTFFGNAMGWYRQAPGKERELVAVISQGGGSTYYADSVKGRFTISRDNAKNTVYLQMNSLKPEDTAVYYCAKRYPHFGSGQLGGTYNYWGQGTQVTVSS,low polyreactivity
12,QVQLVESGGGLVQAGGSLRLSCAASGSTFYTYPMGWYRQAPGKERELVAAISYRGGSTYYADSVKGRFTISRDTAKNTVYLQMNSMKPEDSAVYYCNVVGVVVGTKRGGYDYWGQGTHVTVSS,low polyreactivity
13,QVQLVESGGGLVQAGGSLRLSCAASGIIFRRYAMGWYRQAPGKERELVAAITGRGGSTYYADSVKGRFTISRDNAKNTVYLQMNSLKPEDTAVYYCAADVYTGDYDSWGQGTQVTVSS,high polyreactivity
14,QVQLVESVGGLVQAGGSLRLICACSGLNFVSYAMGWYRQAPGKERELVAAINSRGSRTYYADSVKGRLTISRDNAKNTVYLQMNSLKPEDTALYYCAAGVIRYGGKEEYYYWGQGTQVTVSS,high polyreactivity
15,QVQLVESGGGLVQAGGSLRLSCAASGSIFPAYAMGWYRQAPGKERELVAAITGSGGSTYYADSVKGRFTISRDNAKNTVYLQMNSLKPEDTAVYYCAATIRQYRRYDYWGQGTQVTVSS,low polyreactivity
16,QVQLVESGGGLVQAGGSLRLSCAASGSIFGRYAMGWYRQAPGKESELVAAISANGGSTYYADSVKGRFTISRDNAKNTVYLQMNSLKPEDTAVYYCAAGSTRGYKLGYWGQGTQVTVSS,high polyreactivity
17,QVQLVESGGGLVQAGGSLRLSCAASGSTFDKYVMGWYRQAPGKERELVAVIDWRDGTTYYADSVKGRFTISRDNAKNTVYLQMNSLKPEDTAVYYCNADNDNYGDVYPYYTAGYGYWGQGTQVTVSS,low polyreactivity
